Reference: patent US20250381289A1 (Genmab, published 2025)
Blank lines part the entries; values can stand above or below the binder they belong to.

Tests used:
[1] = molecular target: T1, EGFR on EGFR and cMET co-expressed tumor cell lines (UniProt P00533 25-1210, limits assumed); assay: flow cytometry, SNU-5 cells (co-express EGFR and cMET; both arms contribute)
T1 construct: whole, on cells

[2] = molecular target: T2, cMET on EGFR and cMET co-expressed tumor cell lines (UniProt P08581 25-1390, limits assumed); assay: as above
T2 construct: whole, on cells

[3] = molecular target: T1, EGFR on EGFR and cMET co-expressed …; assay: flow cytometry, EBC-1 cells (co-express EGFR and cMET; both arms contribute)
[4] = molecular target: T2, cMET on EGFR and cMET co-expressed …; assay: as above
[5] = molecular target: T1, EGFR on EGFR and cMET co-expressed …; assay: flow cytometry on EBC-1 cells (co-express EGFR and cMET), PE anti-human Fc; signal of the whole bispecific, not resolved by arm
Method: (§1) EBC-1, ACHN and CAL-27 were cultured with DMEM medium (Gibco, Cat #C11995500BT) containing 10% FBS. […] Each antibody was incubated with different cell lines (1×10⁵ cells per well) for 30 mins in 0.2 mL FACS buffer (1×PBS with 0.1% BSA) at 4° C. After wash, cells were incubated with 100 μL PE-conjugated anti human Fc (Abcam, Ab98596, 1:500 dilution) for 30 mins at 4° C. After wash with PBS, cells were resuspended in FACS buffer and analyzed by flow cytometer (Beckman, CytoFLEX).

[6] = molecular target: T2, cMET on EGFR and cMET co-expressed …; assay: as above
Method: as §1

[7] = molecular target: T1, EGFR on EGFR and cMET co-expressed …; assay: flow cytometry on CAL-27 cells (co-express EGFR and cMET), PE anti-human Fc; signal of the whole bispecific, not resolved by arm
[8] = molecular target: T2, cMET on EGFR and cMET co-expressed …; assay: as above
[9] = molecular target: T1, EGFR on EGFR and cMET co-expressed …; assay: flow cytometry on SNU-5 cells (co-express EGFR and cMET), PE anti-human Fc; signal of the whole bispecific, not resolved by arm
Method: as §1

[10] = molecular target: T2, cMET on EGFR and cMET co-expressed …; assay: as above
Method: as §1

[11] = molecular target: T2, cMET on EGFR and cMET co-expressed …; assay: flow cytometry, MKN-45 cells
[12] = molecular target: T2, cMET on EGFR and cMET co-expressed …; assay: flow cytometry, EBC-1 cells (co-express EGFR and cMET; both arms contribute); remark: listed apart in the source
Method: EBC-1 was cultured with DMEM medium (Gibco, Cat #C11995500BT) containing 10% FBS. […] Each antibody was incubated with different cell lines (1×10⁵ cells/well) for 30 min in 0.2 mL FACS buffer (1×PBS with 0.1% BSA) at 4° C. After wash, cells were incubated with 100 μL PE-conjugated anti human Fc (Abcam, Ab98596, 1:500 dilution) for 30 min at 4° C. After wash with PBS, cells were resuspended in FACS buffer and analyzed by flow cytometer (Beckman, CytoFLEX).

T2 sequence (P08581 25-1390 limits assumed): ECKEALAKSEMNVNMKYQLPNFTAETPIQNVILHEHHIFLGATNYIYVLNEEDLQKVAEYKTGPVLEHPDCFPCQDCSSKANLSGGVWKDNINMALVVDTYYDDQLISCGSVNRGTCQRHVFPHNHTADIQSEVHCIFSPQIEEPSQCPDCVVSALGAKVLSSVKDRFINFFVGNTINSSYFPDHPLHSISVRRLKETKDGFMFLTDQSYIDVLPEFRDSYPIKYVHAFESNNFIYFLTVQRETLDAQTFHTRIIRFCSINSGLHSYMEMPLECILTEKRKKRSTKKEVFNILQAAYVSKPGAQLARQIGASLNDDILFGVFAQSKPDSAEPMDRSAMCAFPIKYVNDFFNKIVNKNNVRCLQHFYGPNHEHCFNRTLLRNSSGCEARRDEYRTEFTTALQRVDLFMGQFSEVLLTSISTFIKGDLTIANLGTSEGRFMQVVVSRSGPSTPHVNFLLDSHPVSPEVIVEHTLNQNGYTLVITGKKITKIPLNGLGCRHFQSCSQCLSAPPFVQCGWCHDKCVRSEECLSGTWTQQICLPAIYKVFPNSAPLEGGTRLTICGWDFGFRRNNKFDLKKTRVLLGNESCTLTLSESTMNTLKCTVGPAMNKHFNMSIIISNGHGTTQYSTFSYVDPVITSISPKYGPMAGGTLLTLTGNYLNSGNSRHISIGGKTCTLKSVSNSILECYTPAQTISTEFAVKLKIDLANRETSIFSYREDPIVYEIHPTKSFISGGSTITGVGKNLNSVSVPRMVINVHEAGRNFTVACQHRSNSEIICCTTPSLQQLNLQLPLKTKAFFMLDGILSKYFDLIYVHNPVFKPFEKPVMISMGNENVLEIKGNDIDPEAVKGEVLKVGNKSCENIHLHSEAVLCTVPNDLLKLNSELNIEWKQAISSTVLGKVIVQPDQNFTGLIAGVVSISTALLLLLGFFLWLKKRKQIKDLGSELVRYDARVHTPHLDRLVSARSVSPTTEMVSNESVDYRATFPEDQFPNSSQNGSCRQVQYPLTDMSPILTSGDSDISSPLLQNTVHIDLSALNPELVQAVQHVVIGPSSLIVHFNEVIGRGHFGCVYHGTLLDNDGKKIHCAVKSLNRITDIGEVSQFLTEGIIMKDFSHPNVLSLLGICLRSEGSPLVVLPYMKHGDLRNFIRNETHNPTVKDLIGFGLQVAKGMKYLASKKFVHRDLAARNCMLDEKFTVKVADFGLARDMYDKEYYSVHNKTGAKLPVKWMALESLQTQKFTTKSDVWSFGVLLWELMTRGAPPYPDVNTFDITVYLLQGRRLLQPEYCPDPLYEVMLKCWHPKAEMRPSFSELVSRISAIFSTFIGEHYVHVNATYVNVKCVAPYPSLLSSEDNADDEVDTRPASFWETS

B1: AZD9592 (bispecific antibody, human IgG1, kappa, lambda)
anti EGFR heavy chain: QVQLVQSGAEVKKPGSSVKVSCKASGGTFSDNDFSWVRQAPGQGLEWMGAIVAVFRTETYAQKFQDRVKITADISTRTTYMELSSLRSEDTAVYYCARRLMSAISGPGAPLLMWGQGTLVTVSSASTKGPSVCPLAPSSKSTSGGTAALGCLVKDYFPEPVTVSWNSGALTSGVHTFPAVLQSSGLYSLSSVVTVPSSSLGTQTYICNVNHKPSNTKVDKRVEPKSVDKTHTCPPCPAPEFEGGPSVFLFPPKPKDTLMISRTPEVTCVVVDVSHEDPEVKFNWYVDGVEVHNAKTKPREEQYNSTYRVVSVLTVLHQDWLNGKEYKCKVSNKALPASIEKTISKAKGQPREPQVYTLPPCREEMTKNQVSLWCLVKGFYPSDIAVEWESNGQPENNYKTTPPVLDSDGSFFLYSKLTVDKSRWQQGNVFSCSVMHEALHNHYTQKSLSLSPGK
anti EGFR light chain: QSALTQPRSVSGSPGQSVTISCTGTSSDVGGYNYVSWYQQHPGKAPKLMIYDVSKRPSGVPDRFSGSKSGNTASLTISGLQAEDEADYYCSSYTSSDTLEIFGGGTKLTVLGQPKAAPSVTLFPPCSEELQANKATLVCLISDFYPGAVTVAWKADSSPVKAGVETTTPSKQSNNKYAASSYLSLTPEQWKSHRSYSCQVTHEGSTVEKTVAPTEVS
anti cMET heavy chain: QVQLVQSGAEVKKPGASVKVSCKASGYTFTDYYIHWVRQATGQGLEWMGWMNPNSGNTGYAQKFQGRVTMTRDTSISTAYMELSSLRSEDTAVYYCARGQGYTHSWGQGTMVTVSSASTKGPSVFPLAPSSKSTSGGTAALGCLVKDYFPEPVTVSWNSGALTSGVHTFPAVLQSSGLYSLSSVVTVPSSSLGTQTYICNVNHKPSNTKVDKRVEPKSCDKTHTCPPCPAPEFEGGPSVFLFPPKPKDTLMISRTPEVTCVVVDVSHEDPEVKFNWYVDGVEVHNAKTKPREEQYNSTYRVVSVLTVLHQDWLNGKEYKCKVSNKALPASIEKTISKAKGQPREPQVCTLPPSREEMTKNQVSLSCAVKGFYPSDIAVEWESNGQPENNYKTTPPVLDSDGSFFLVSKLTVDKSRWQQGNVFSCSVMHEALHNHYTQKSLSLSPGK
anti cMET light chain: DIQMTQSPSTLSASVGDRVTITCRASEGIYHWLAWYQQKPGKAPKLLIYKASSLASGVPSRFSGSGSGTEFTLTISSLQPDDFATYYCQQYSNYPPTFGGGTKLEIKRTVAAPSVFIFPPSDEQLKSGTASVVCLLNNFYPREAKVQWKVDNALQSGNSQESVTEQDSKDSTYSLSSTLTLSKADYEKHKVYACEVTHQGLSSPVTKSFNRGEC
EC50 (read off the curve) [1]: ~2 nM
EC50 (read off the curve) [2]: ~2 nM
EC50 (read off the curve) [3]: ~0.9 nM
EC50 (read off the curve) [4]: ~0.9 nM

B5: Nova-5097 (antibody, V domains shown)
VH: QVQLVQSGAEVKKPGSSVKVSCKASGGTFSSYAISWVRQAPGQGLEWMGGIDPFGTANYAQKFQGRVTITADESTSTAYMELSSLRSEDTAVYYCARVYQDVWGQGTLVTVSS
VL: DIVMTQSPDSLAVSLGERATINCRSSQSILYGINNNFLGWYQQKPGQPPKLLIYWASTRESGVPDRFSGSGSGTDFTLTISSLQAEDVAVYYCQQYAFGWTFGQGTKVEIK
notes: Parent cMET mAb
binding result [11]: binds

B6: Nova-5098 (antibody, V domains shown)
VH: QVQLVQSGAEVKKPGSSVKVSCKASGGTFSSYAISWVRQAPGQGLEWMGGIDPFGTANYAQKFQGRVTITADESTSTAYMELSSLRSEDTAVYYCARVYQDVWGQGTLVTVSS
VL: DIVMTQSPDSLAVSLGERATINCRSSQSILYGINNNFLGWYQQKPGQPPKLLIYWASTRESGVPDRFSGSGSGTDFTLTISSLQAEDVAVYYCLQYSDEPWTFGQGTKVEIK
notes: Parent cMET mAb
binding result [11]: binds

B7: Nova-5185 (antibody, V domains shown)
VH: QVQLVQSGAEVKKPGSSVKVSCKASGGTFSSYAISWVRQAPGQGLEWMGGIDPIMGTEYAQKFQGRVTITADESTSTAYMELSSLRSEDTAVYYCARVYQDVWGQGTLVTVSS
VL: DIVMTQSPDSLAVSLGERATINCRSSQSILYGINNNFLGWYQQKPGQPPKLLIYWASTRESGVPDRFSGSGSGTDFTLTISSLQAEDVAVYYCQQYAYEPNTFGQGTKVEIK
notes: Parent cMET mAb
binding result [11]: binds

Other lines, results leading:

EC50 (read off the curve) [5]: ~2 nM
EC50 (read off the curve) [6]: ~2 nM
EC50 (read off the curve) [7]: ~9 nM
EC50 (read off the curve) [8]: ~9 nM
EC50 (read off the curve) [9]: ~4 nM
EC50 (read off the curve) [10]: ~4 nM
B2: AZD9592-Ab (bispecific antibody, human IgG1, kappa, lambda)
anti-EGFR heavy chain: QVQLVQSGAEVKKPGSSVKVSCKASGGTFSDNDFSWVRQAPGQGLEWMGAIVAVFRTETYAQKFQDRVKITADISTRTTYMELSSLRSEDTAVYYCARRLMSAISGPGAPLLMWGQGTLVTVSSASTKGPSVCPLAPSSKSTSGGTAALGCLVKDYFPEPVTVSWNSGALTSGVHTFPAVLQSSGLYSLSSVVTVPSSSLGTQTYICNVNHKPSNTKVDKRVEPKSVDKTHTCPPCPAPEFEGGPSVFLFPPKPKDTLMISRTPEVTCVVVDVSHEDPEVKFNWYVDGVEVHNAKTKPREEQYNSTYRVVSVLTVLHQDWLNGKEYKCKVSNKALPASIEKTISKAKGQPREPQVYTLPPCREEMTKNQVSLWCLVKGFYPSDIAVEWESNGQPENNYKTTPPVLDSDGSFFLYSKLTVDKSRWQQGNVFSCSVMHEALHNHYTQKSLSLSPGK
anti-EGFR light chain: QSALTQPRSVSGSPGQSVTISCTGTSSDVGGYNYVSWYQQHPGKAPKLMIYDVSKRPSGVPDRFSGSKSGNTASLTISGLQAEDEADYYCSSYTSSDTLEIFGGGTKLTVLGQPKAAPSVTLFPPCSEELQANKATLVCLISDFYPGAVTVAWKADSSPVKAGVETTTPSKQSNNKYAASSYLSLTPEQWKSHRSYSCQVTHEGSTVEKTVAPTEVS
anti-cMET heavy chain: QVQLVQSGAEVKKPGASVKVSCKASGYTFTDYYIHWVRQATGQGLEWMGWMNPNSGNTGYAQKFQGRVTMTRDTSISTAYMELSSLRSEDTAVYYCARGQGYTHSWGQGTMVTVSSASTKGPSVFPLAPSSKSTSGGTAALGCLVKDYFPEPVTVSWNSGALTSGVHTFPAVLQSSGLYSLSSVVTVPSSSLGTQTYICNVNHKPSNTKVDKRVEPKSCDKTHTCPPCPAPEFEGGPSVFLFPPKPKDTLMISRTPEVTCVVVDVSHEDPEVKFNWYVDGVEVHNAKTKPREEQYNSTYRVVSVLTVLHQDWLNGKEYKCKVSNKALPASIEKTISKAKGQPREPQVCTLPPSREEMTKNQVSLSCAVKGFYPSDIAVEWESNGQPENNYKTTPPVLDSDGSFFLVSKLTVDKSRWQQGNVFSCSVMHEALHNHYTQKSLSLSPGK
anti-cMET light chain: DIQMTQSPSTLSASVGDRVTITCRASEGIYHWLAWYQQKPGKAPKLLIYKASSLASGVPSRFSGSGSGTEFTLTISSLQPDDFATYYCQQYSNYPPTFGGGTKLEIKRTVAAPSVFIFPPSDEQLKSGTASVVCLLNNFYPREAKVQWKVDNALQSGNSQESVTEQDSKDSTYSLSSTLTLSKADYEKHKVYACEVTHQGLSSPVTKSFNRGEC
notes: also called RAA22/B09-TM

binding result [11]: binds
B3: ABF-46 (antibody, V domains shown)
VH: EVKLVESGGGLVQPGGSLRLSCATSGFTFTDYYMSWVRQPPGKALEWLGFIRNKANGYTTEYSASVKGRFTISRDNSQSILYLQMDTLRAEDSATYYCARDNWFAYWGQGTLVTVSA
VL: DILMTQSPSSLTVSAGEKVTMSCKSSQSLLASGNQNNYLAWHQQKPGRSPKMLIIWASTRVSGVPDRFIGSGSGTDFTLTINSVQAEDLAVYYCQQSYSAPLTFGAGTKLELK

EC50 (read off the curve) [12]: ~2 nM
B4: Bsab 12 (bispecific antibody, human IgG1, kappa, L234A L235A)
chain 1: not shown
chain 2: DIQMTQSPSSLSASVGDRVTITCKSSQSLLYTSSQKNYLAWYQQKPGKAPKLLIYWASTRESGVPSRFSGSGSGTDFTLTISSLQPEDFATYYCQQYYAYPWTFGQGTKVEIKRTVAAPSVFIFPPSDEQLKSGTASVVCLLNNFYPREAKVQWKVDNALQSGNSQESVTEQDSKDSTYSLSSTLTLSKADYEKHKVYACEVTHQGLSSPVTKSFNRGECGGGGSGGGGSGGGGSGGGGSGGGGSGGGGSGGGGSGGGGSEVQLVESGGGLVQPGGSLRLSCAASGYTFTSYWLHWVRQAPGKGLEWVGMIDPSNSDTRFNPNFKDRFTISADTSKNTAYLQMNSLRAEDTAVYYCATYRSYVTPLDYWGQGTLVTVSSASTKGPSVFPLAPSSKSTSGGTAALGCLVKDYFPEPVTVSWNSGALTSGVHTFPAVLQSSGLYSLSSVVTVPSSSLGTQTYICNVNHKPSNTKVDKKVEPKSCDKTHTCPPCPAPEAAGGPSVFLFPPKPKDTLMISRTPEVTCVVVDVSHEDPEVKFNWYVDGVEVHNAKTKPREEQYNSTYRVVSVLTVLHQDWLNGKEYKCKVSNKALPAPIEKTISKAKGQPREPQVYTLPPCREEMTKNQVSLSCAVKGFYPSDIAVEWESNGQPENNYKTTPPVLDSDGSFFLVSKLTVDKSRWQQGNVFSCSVMHEALHNHYTQKSLSLSPGK
notes: 1+1 scFab knob-in-hole format; also called Basb 12
